Experimental findings from patent US20110098449A1 are described below.

The target of this experiment is Human recombinant hepatocyte growth factor activator (HGFA) (human) (UniProt Q04756). As to the kind of experiment: cell-based or functional assay.
Chain of UniProt Q04756 (Q04756 373-655 limits assumed): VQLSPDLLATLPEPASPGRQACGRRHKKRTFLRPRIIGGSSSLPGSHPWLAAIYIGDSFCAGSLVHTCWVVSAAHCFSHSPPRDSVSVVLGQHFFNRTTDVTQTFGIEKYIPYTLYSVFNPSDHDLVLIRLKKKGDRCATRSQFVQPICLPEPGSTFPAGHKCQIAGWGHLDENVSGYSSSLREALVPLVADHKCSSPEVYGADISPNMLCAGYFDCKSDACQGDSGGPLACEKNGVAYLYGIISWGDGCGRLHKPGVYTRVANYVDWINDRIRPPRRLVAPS

For “Soluble HAI-1B (hepatocyte growth factor activator inhibitor-1B) (from UniProt O43278 36-465)”, the inhibition of HGFA-mediated 125I-proHGF conversion (SDS-PAGE) worked out at 1 µM.
